Laboratory results reported in the supplement of paper PMC7125110.
± gives the standard error. This sample holds only a part of the variants without activity.

B1: glmS ribozyme (parent)
chain: AUAAAAGCGCCAGAACUACAGAAAUGUAGUUGACGAGGAGGAGGUUUAUCGAAUUUUCGGCGGAUGCCUCCAAA

Variants of: B1
Test: self-cleavage kobs at 2500 uM GlcN6P; higher = faster cleavage; RNA array
Conditions: with glucosamine-6-phosphate
Outline: (§1)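 On sequenced MiSeq chips, barcoded ribozyme variants were made in situ by E. coli RNA polymerase and followed at 37 °C through a hybridised Cy3 probe. Glucosamine-6-phosphate was flowed in at 40 μM to 10 mM in HEPES/KCl/Mg(OAc)2 buffer. Exponential fits to normalised per-tile medians gave kobs, and weighted Michaelis–Menten fits gave kcat and KM.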

Compared with A42G A48U U54G, U55A U56A G66C is 2.7-fold lower in “self-cleavage kobs at 2500 uM GlcN6P” value: 0.000367 ± 0.0001 s⁻¹ for the first, 0.000134 ± 3.4e-05 s⁻¹ for the second.

First: U46C U47A U69A
Second: A42G G51U C67U
The “self-cleavage kobs at 2500 uM GlcN6P” value of the first is higher: 0.000198 ± 6.5e-05 s⁻¹ for the first, < 1e-05 s⁻¹ for the second.

Compared with C50A A53U C67U C68G, U45C U46C C70A is 2.6-fold higher in “self-cleavage kobs at 2500 uM GlcN6P” value: 4.54e-05 ± 2.1e-05 s⁻¹ for the first, 0.000116 ± 4.4e-05 s⁻¹ for the second.

Going from G40A U54G U69A to C50A U69C, the “self-cleavage kobs at 2500 uM GlcN6P” value rises from < 1e-05 s⁻¹ to 6.67e-05 ± 2e-05 s⁻¹.

First: C50A U65G U69G C70A
Second: C50U G60U A64C C70A
The “self-cleavage kobs at 2500 uM GlcN6P” value of the first is higher: 8e-05 ± 2.9e-05 s⁻¹ for the first, < 1e-05 s⁻¹ for the second.

C50U U55A C68G and U57C C58A C67G are within error of each other in “self-cleavage kobs at 2500 uM GlcN6P” value: 0.00018 ± 5.2e-05 s⁻¹ for the first, 0.000113 ± 5.6e-05 s⁻¹ for the second.

First: A53U C58G C61G C71G
Second: G43A G66U C67U C71U
The “self-cleavage kobs at 2500 uM GlcN6P” value of the first is higher: 0.000415 ± 0.00016 s⁻¹ for the first, < 1e-05 s⁻¹ for the second.

Going from U46A A64G G66A C71G to A42G A52C A53G U54G, the “self-cleavage kobs at 2500 uM GlcN6P” value falls from 6.58e-05 ± 2.6e-05 s⁻¹ to < 1e-05 s⁻¹.

A48C G51A C70G and A48U G60C G63C C71U cannot be ordered by “self-cleavage kobs at 2500 uM GlcN6P” value: < 1e-05 s⁻¹ for the first, < 1e-05 s⁻¹ for the second.

G41C G43C U55A U57G U69G and G40A G41C A42C U49C cannot be ordered by “self-cleavage kobs at 2500 uM GlcN6P” value: < 1e-05 s⁻¹ for the first, < 1e-05 s⁻¹ for the second.

G43C U56A G62A and A42U C61G U69G C70A cannot be ordered by “self-cleavage kobs at 2500 uM GlcN6P” value: < 1e-05 s⁻¹ for the first, < 1e-05 s⁻¹ for the second.

U57C U69C and A42U G66A are within error of each other in “self-cleavage kobs at 2500 uM GlcN6P” value: 6.42e-05 ± 2.1e-05 s⁻¹ for the first, 7.23e-05 ± 2.1e-05 s⁻¹ for the second.

A42U U45A U49G and A52C C58U G59U cannot be ordered by “self-cleavage kobs at 2500 uM GlcN6P” value: < 1e-05 s⁻¹ for the first, < 1e-05 s⁻¹ for the second.

Compared with A64C G66A, G44C C58G G63A C67G is lower in “self-cleavage kobs at 2500 uM GlcN6P” value: 4.39e-05 ± 1.4e-05 s⁻¹ for the first, < 1e-05 s⁻¹ for the second.

First: G41A U47G C70G
Second: G40C A52G G60A
The “self-cleavage kobs at 2500 uM GlcN6P” value of the first is higher: 9.9e-05 ± 3.6e-05 s⁻¹ for the first, < 1e-05 s⁻¹ for the second.

Going from U57C G60A G66C to A52U U57A C71U, the “self-cleavage kobs at 2500 uM GlcN6P” value rises from < 1e-05 s⁻¹ to 0.000749 ± 0.00022 s⁻¹.

Compared with A52G C58G C61A A64U C67U, G40C U45G C58U is lower in “self-cleavage kobs at 2500 uM GlcN6P” value: 9.05e-05 ± 3.3e-05 s⁻¹ for the first, < 1e-05 s⁻¹ for the second.

Going from U46C G60C C61U to U54G U57A C67G, the “self-cleavage kobs at 2500 uM GlcN6P” value rises from < 1e-05 s⁻¹ to 7.42e-05 ± 2.5e-05 s⁻¹.

A53U C67A C70A and U45A U54G C68G are within error of each other in “self-cleavage kobs at 2500 uM GlcN6P” value: 5.59e-05 ± 2.7e-05 s⁻¹ for the first, 9.7e-05 ± 3.2e-05 s⁻¹ for the second.

First: G40A U56A C70G
Second: U46G A48U G59U U69C
The “self-cleavage kobs at 2500 uM GlcN6P” value of the first is higher: 0.000135 ± 3e-05 s⁻¹ for the first, < 1e-05 s⁻¹ for the second.

U46C A52C G60U C61U and U45C A52U C68U cannot be ordered by “self-cleavage kobs at 2500 uM GlcN6P” value: < 1e-05 s⁻¹ for the first, < 1e-05 s⁻¹ for the second.

In the case of G41C U45A U56G C67G C70G, the “self-cleavage kobs at 2500 uM GlcN6P” value is reported as 0.00118 ± 0.00023 s⁻¹.

Variants of: B1
Test: self-cleavage kobs at 10000 uM GlcN6P; higher = faster cleavage; RNA array
Conditions: with glucosamine-6-phosphate
Outline: as §1

Compared with C8G C61G C70A, G7A A33G C50A U69A C70U is higher in “self-cleavage kobs at 10000 uM GlcN6P” value: < 1e-05 s⁻¹ for the first, 9.88e-05 ± 1.8e-05 s⁻¹ for the second.

C10A C50U G59A and A6U C11G G41C G62A G66U cannot be ordered by “self-cleavage kobs at 10000 uM GlcN6P” value: < 1e-05 s⁻¹ for the first, < 1e-05 s⁻¹ for the second.

G7U G29U G32A A42U U55C G62C and A6G A12C A33G U45A G62U cannot be ordered by “self-cleavage kobs at 10000 uM GlcN6P” value: < 1e-05 s⁻¹ for the first, < 1e-05 s⁻¹ for the second.

C8A A12G A39G U45A A48C U55C and A6U C11A A39G cannot be ordered by “self-cleavage kobs at 10000 uM GlcN6P” value: < 1e-05 s⁻¹ for the first, < 1e-05 s⁻¹ for the second.

C8G G43U G51U U54G and G7A U57A C58A cannot be ordered by “self-cleavage kobs at 10000 uM GlcN6P” value: < 1e-05 s⁻¹ for the first, < 1e-05 s⁻¹ for the second.

Compared with A6G U54A U56A, C10A G59U is 1.9-fold lower in “self-cleavage kobs at 10000 uM GlcN6P” value: 0.000141 ± 2.8e-05 s⁻¹ for the first, 7.46e-05 ± 7.9e-06 s⁻¹ for the second.

A6C G32C G41C C58U U65A and C10A A36U A39U cannot be ordered by “self-cleavage kobs at 10000 uM GlcN6P” value: < 1e-05 s⁻¹ for the first, < 1e-05 s⁻¹ for the second.

C10A A14G G32U A48C G59A and G9A A15G G35A A42U C70U cannot be ordered by “self-cleavage kobs at 10000 uM GlcN6P” value: < 1e-05 s⁻¹ for the first, < 1e-05 s⁻¹ for the second.

G9C G13C A14U U31A A48G C61A and G9U C34G C70G cannot be ordered by “self-cleavage kobs at 10000 uM GlcN6P” value: < 1e-05 s⁻¹ for the first, < 1e-05 s⁻¹ for the second.

G9U G41U A42G A52U A64U C68U and G9U U30C U31C G43A U65A C68U C71A cannot be ordered by “self-cleavage kobs at 10000 uM GlcN6P” value: < 1e-05 s⁻¹ for the first, < 1e-05 s⁻¹ for the second.

C10U G43U G60U and A6C U47G U49C C67U cannot be ordered by “self-cleavage kobs at 10000 uM GlcN6P” value: < 1e-05 s⁻¹ for the first, < 1e-05 s⁻¹ for the second.

G7A C34U U57A and C11A A15G U57A G62U cannot be ordered by “self-cleavage kobs at 10000 uM GlcN6P” value: < 1e-05 s⁻¹ for the first, < 1e-05 s⁻¹ for the second.

Compared with C8A G13A U46A, A42U G66A is higher in “self-cleavage kobs at 10000 uM GlcN6P” value: < 1e-05 s⁻¹ for the first, 0.000114 ± 2.5e-05 s⁻¹ for the second.

G7C G32C G41C and G7U A12U G35U G51U G66A cannot be ordered by “self-cleavage kobs at 10000 uM GlcN6P” value: < 1e-05 s⁻¹ for the first, < 1e-05 s⁻¹ for the second.

G9A C16G G51A G60U and C8U A15C G32U A36U A39C A48U cannot be ordered by “self-cleavage kobs at 10000 uM GlcN6P” value: < 1e-05 s⁻¹ for the first, < 1e-05 s⁻¹ for the second.

First: C10U C50G A53U U54G U55C C68G
Second: A52U U57A C71U
The “self-cleavage kobs at 10000 uM GlcN6P” value of the first is 27-fold lower: 6.48e-05 ± 2e-05 s⁻¹ for the first, 0.00177 ± 0.00039 s⁻¹ for the second.

U46C G60C C61U and G7U A12G G35A A39G U49A C67A cannot be ordered by “self-cleavage kobs at 10000 uM GlcN6P” value: < 1e-05 s⁻¹ for the first, < 1e-05 s⁻¹ for the second.

Going from U54G U57A C67G to G9U G62U, the “self-cleavage kobs at 10000 uM GlcN6P” value falls from 7.25e-05 ± 1.8e-05 s⁻¹ to < 1e-05 s⁻¹.

Compared with C8U A12U A42C C70U, C11A A52G is higher in “self-cleavage kobs at 10000 uM GlcN6P” value: < 1e-05 s⁻¹ for the first, 3.16e-05 ± 9.6e-06 s⁻¹ for the second.

C8U U45G C50U U65C and C8U G37C G43A C58A cannot be ordered by “self-cleavage kobs at 10000 uM GlcN6P” value: < 1e-05 s⁻¹ for the first, < 1e-05 s⁻¹ for the second.

Going from G7A A53G to C10A A15C A42C U55G C68U, the “self-cleavage kobs at 10000 uM GlcN6P” value falls from 3.18e-05 ± 9.4e-06 s⁻¹ to < 1e-05 s⁻¹.

In the case of U46C A52C G60U C61U, the “self-cleavage kobs at 10000 uM GlcN6P” value is reported as < 1e-05 s⁻¹.
